Assay results published in patent publication US20260183437A1, “VHH ANTIBODY CONJUGATES WITH HETEROARYL CHELATORS” (ABDERA THERAPEUTICS INC., priority 2022, published 2026).

Tests used:
Test in all cases: ABC (Antibody Binding Capacity) assay, receptor density
Format in all cases: cell-based
HEK-DLL3 = system: HEK-DLL3
Experimental: (§1) In order to test efficacy of the immunoconjugate binding with respect to target density receptor density was measured on target positive cell lines. Target density was measured using the ABC (Antibody Binding Capacity) assay. Cancer cells expressing the target of interest, as well as a negative control cell line, were harvested with cell dissociation buffer, seeded at about 5×10^4 cells per well into 96-well V bottom plate (Sarstedt 82.1583.001). Cells were tested for receptor expression using QuantiBRITE PE beads (BD Cat #340495) and a PE-conjugated anti-hu IgG (Biolegend clone HP6017) following the manufacturers' instructions. In brief, VHH-Fc and isotype control antibodies were prepared at suitable saturating concentrations based on previous experiments. Antibody sample dilutions were incubated with the panel of cell lines on ice for 1 hour. Cells were washed twice with 1% FBS in 1×PBS (FACS buffer), centrifuged at 400 G for 4 min. Cells were then incubated with 4 μg/mL mouse PE-conjugated anti-hu and DAPI (1:1000) for 30 minutes on ice. Cells were washed twice with FACS buffer, centrifuged at 400 G for 4 minutes and resuspended in FACS buffer. Fluorescence intensity on the PE channel was measured on the iQue Screener platform, and data were processed with ForeCyt software. The amount of PE signal generated from the different primary antibody was then fit to a standard curve based off of known PE molecules/Quantibrite bead samples to determine the number of antibody-binding sites per cell. Relative antibody binding sites correlate to the number of antigens or receptors on cell surface.

H82 = system: H82
Experimental: as §1

SHP-77 = system: SHP-77
Experimental: as §1

B1: Rovalpituzumab: control antibody for DLL3 binding (Creative Biolabs #TAB-216CL) (antibody, chains of the INN, looked up, V domains shown)
VH: QVQLVQSGAEVKKPGASVKVSCKASGYTFTNYGMNWVRQAPGQGLEWMGWINTYTGEPTYADDFKGRVTMTTDTSTSTAYMELRSLRSDDTAVYYCARIGDSSPSDYWGQGTLVTVSS
VL: EIVMTQSPATLSVSPGERATLSCKASQSVSNDVVWYQQKPGQAPRLLIYYASNRYTGIPARFSGSGSGTEFTLTISSLQSEDFAVYYCQQDYTSPWTFGQGTKLEIK
- Estimated number of epitopes/cell (HEK-DLL3): 1679 epitopes/cell
- Estimated number of epitopes/cell (H82): 936 epitopes/cell
- Estimated number of epitopes/cell (SHP-77): 969 epitopes/cell
